In the supplement of paper PMC10567573:

B1: CHMP4C (parent)
chain: TNIRLPNVPSSSLPAQPNRKPGMS
B2: SCNN1D (parent)
chain: RRPSPVLRHLELLDEFARENIDSL

Variants of: B1
Assay: protein stability index of a GFP-peptide fusion (GPS, HEK-293T) (PSI 1-6); higher = more stable
Conditions: c terminus: a fixed tail appended
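Further: lentivirally expressed fusions sorted by FACS into six bins by GFP to DsRed ratio, PSI derived from sequencing read proportions per bin multiplied by bin number.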

Variant	protein stability index
Q16T	4.53
Q16R	5.25
Q16C	4.39
Q16E	4.69
Q16S	4.91
Q16D	4.24
Q16L	4.32
Q16K	4.03
Q16H	4.44
Q16Y	3.99
Q16F	4.05
Q16G	4.51
Q16W	3.34
Q16V	4.71
Q16A	4.7
Q16M	3.7
Q16N	4.73
Q16I	4.35
Q16P	4.94
S10R	4.06
S10N	3.58
S10M	4.48
S10E	4.51
S10L	4.09
S10D	4.84

Variant	protein stability index
S10P	4.39
S10V	4.2
S10W	4.46
S10I	4.6
S10G	4.75
S10F	4.05
S10A	4.62
S10Y	4.22
S10Q	4.73
S10K	4.24
S10C	4.83
S10T	4.1
S10H	4.76
N18S	4.21
N18V	4.6
N18G	4.25
N18R	4.69
N18P	4.58
N18I	4.3
N18E	4.41
N18A	4.45
N18D	4.51
N18F	4.33
N18Y	4.36
N18Q	4.87

Variant	protein stability index
N18M	4.66
N18K	4.62
N18T	4.89
N18L	4.25
N18W	3.42
N18C	3.97
N18H	4.85
P14W	4.01
P14C	3.94
P14I	4.22
P14D	4.5
P14R	4.4
P14V	4.93
P14Y	3.67
P14G	4.67
P14Q	4.98
P14E	4.7
P14A	4.14
P14L	4.19
P14M	4.47
P14T	4.39
P14S	4.69
P14K	4.39
P14H	4.37
P14F	4.22

Variant	protein stability index
P14N	4.41
P9W	3.53
P9M	4.36
P9S	4.68
P9D	4.77
P9N	4.89
P9Y	3.62
P9T	4.55
P9E	4.94
P9I	4.3
P9C	4.33
P9V	4.71
P9L	3.85
P9F	4.22
P9H	4.49
P9K	4.78
P9Q	5.12
P9G	4.52
P9R	4.45
P9A	4.62
P17V	4.67
P17L	4.14
P17T	4.75
P17K	4.61
P17Y	4.05

Variant	protein stability index
P17W	3.64
P17Q	3.82
P17H	4.26
P17F	4.24
P17M	4.56
P17A	3.6
P17C	3.76
P17D	4.35
P17I	3.87
P17G	4.71
P17R	4.2
P17N	4.72
P17S	4.21
P17E	4.96
S11P	4.61
S11K	4.49
S11M	3.73
S11Q	4.53
S11W	3.97
S11E	4.1
S11R	4.79
S11T	3.48
S11N	4.19
S11Y	4.28
S11C	4.86

Variant	protein stability index
S11D	4.94
S11A	4.87
S11V	4.13
S11L	4.01
S11F	4.12
S11H	4.6
S11I	4.68
S11G	4.51
N7Y	4.13
N7W	4.11
K20R	4.4
K20H	4.4
K20N	4.41
K20D	4.44
K20Y	4.02
K20P	3.77
K20T	3.92
K20G	4.39
K20M	3.75
K20V	3.66
K20S	4.56
K20C	4.3
K20E	4.27
K20F	3.79
K20L	4.41

Variant	protein stability index
K20W	3.41
K20I	3.61
K20Q	4.55
K20A	4.43
A15Y	4.26
A15G	4.69
A15H	4.59
A15Q	5.06
A15T	4.55
A15F	4.21
A15M	4.16
A15V	4.59
A15N	4.44
A15P	4.71
A15R	4.71
A15L	4.19
A15S	4.56
A15W	4.01
A15C	4.54
A15K	4.58
A15E	4.64
A15I	4.34
A15D	4.75
S24V	4.86
S24Q	4.69

Variant	protein stability index
S24F	4.21
S24L	4.15
S24D	3.96
S24N	4.57
S24I	4.27
S24A	4.48
S24G	4.14
S24M	3.99
S24C	4.2
S24P	4.81
S24E	4.83
S24R	4.67
S24H	4.5
S24K	4.94
S24Y	4.34
S24T	4.62
S24W	3.8
V8G	4.47
V8I	4.76
V8Y	4.02
V8C	3.99
V8L	4.4
V8N	4.58
V8D	4.54
V8R	4.42

Variant	protein stability index
V8M	4.61
V8K	4.63
V8T	4.69
V8P	5.05
V8E	5.14
V8W	4.19
V8Q	4.43
V8A	4.51
V8S	4.49
V8F	4.29
V8H	4.77
P21H	4.45
P21L	4.29
P21W	3.4
P21T	4.47
P21Q	4.96
P21Y	4.05
P21D	4.59
P21R	4.94
P21K	4.65
P21S	4.41
P21N	4.11
P21C	4.24
P21E	4.5
P21A	5

Variant	protein stability index
P21G	4.31
P21I	4.31
P21V	4.14
P21M	4.32
P21F	4.32
R19E	4.86
R19F	4.13
R19T	4.57
R19P	4.77
R19I	4.61
R19S	4.71
R19Y	3.94
R19N	4.69
R19H	4.33
R19M	4.37
R19L	4.58
R19W	3.6
R19K	4.33
R19Q	4.62
R19G	4.49
R19C	4.27
R19A	4.61
R19D	4.66
R19V	4.71
G22K	4.64

Variant	protein stability index
G22M	4.2
G22T	4.21
G22S	4.08
G22D	4.78
G22N	5.03
G22V	4.29
G22A	4.48
G22R	4.92
G22L	4.22
G22W	3.75
G22C	4.4
G22F	4.2
G22P	4.24
G22I	4.39
G22Y	4.01
G22H	4.32
G22Q	4.88
G22E	4.68
M23V	4.82
M23N	5.13
M23G	5.2
M23Q	5.23
M23W	3.96
M23A	5.03
M23P	4.28

Variant	protein stability index
M23D	5.58
M23C	4.84
M23L	4.88
M23I	4.37
M23Y	4.7
M23E	5.61
M23K	4.37
M23R	4.04
M23F	4.42
M23T	5.17
M23S	5.17
M23H	4.92
S12V	4.8
S12R	4.51
S12D	4.67
S12Y	4.12
S12Q	4.66
S12T	4.07
S12W	3.25
S12K	4.44
S12F	4.29
S12M	4.33
S12H	4.35
S12C	4.18
S12N	4.68

Variant	protein stability index
S12A	4.51
S12I	4.56
S12P	4.34
S12E	5.06
S12L	3.44
S12G	4.27
L13E	4.25
L13R	4.82
L13F	4.35
L13A	4.88
L13T	5.11
L13H	4.25
L13C	4.47
L13G	4.27
L13D	4.4
L13K	4.46
L13Q	4.09
L13S	4.76
L13W	4.45
L13V	4.88
L13M	4.6
L13N	4.52
L13Y	4.1
L13I	4.54

Variants of: B2
Assay: as above
Conditions: c terminus: a fixed tail appended

Variant	protein stability index
R1A	2.1
R1K	2.92
R1G	2.46
R1F	1.99
R1E	3.36
R1I	2.1
R1H	2.43
R1C	2
R1D	2.86
R1L	2.21
